How the values were obtained:
[1] = molecular target: taxol-stabilised microtubules polymerised from pig brain tubulin (pig) (UniProt P02550); assay: co-sedimentation
[2] = molecular target: taxol-stabilised microtubules polymerised from pig brain tubulin (pig) (UniProt P02550); assay: TIRF imaging of labeled Lis1 on microtubules

Chain of Lis1 (Pac1, the Lis1 homolog in S. cerevisiae), wild-type dimer (P39946 whole entry): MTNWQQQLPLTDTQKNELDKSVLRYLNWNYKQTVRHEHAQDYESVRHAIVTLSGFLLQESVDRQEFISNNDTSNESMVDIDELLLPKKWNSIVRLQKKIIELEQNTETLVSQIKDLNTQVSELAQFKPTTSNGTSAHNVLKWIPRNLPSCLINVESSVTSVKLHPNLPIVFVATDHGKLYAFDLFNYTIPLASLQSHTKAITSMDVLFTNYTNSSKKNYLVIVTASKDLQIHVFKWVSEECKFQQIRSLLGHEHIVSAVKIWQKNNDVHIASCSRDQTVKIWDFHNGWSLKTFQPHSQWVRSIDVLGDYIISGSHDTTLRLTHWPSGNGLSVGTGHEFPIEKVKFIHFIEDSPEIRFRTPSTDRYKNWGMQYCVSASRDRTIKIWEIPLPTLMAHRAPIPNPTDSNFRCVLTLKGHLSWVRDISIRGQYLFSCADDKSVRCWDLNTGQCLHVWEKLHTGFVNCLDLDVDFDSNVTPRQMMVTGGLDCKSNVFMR
Chain of taxol-stabilised microtubules polymerised from pig brain tubulin (pig) (P02550 whole entry): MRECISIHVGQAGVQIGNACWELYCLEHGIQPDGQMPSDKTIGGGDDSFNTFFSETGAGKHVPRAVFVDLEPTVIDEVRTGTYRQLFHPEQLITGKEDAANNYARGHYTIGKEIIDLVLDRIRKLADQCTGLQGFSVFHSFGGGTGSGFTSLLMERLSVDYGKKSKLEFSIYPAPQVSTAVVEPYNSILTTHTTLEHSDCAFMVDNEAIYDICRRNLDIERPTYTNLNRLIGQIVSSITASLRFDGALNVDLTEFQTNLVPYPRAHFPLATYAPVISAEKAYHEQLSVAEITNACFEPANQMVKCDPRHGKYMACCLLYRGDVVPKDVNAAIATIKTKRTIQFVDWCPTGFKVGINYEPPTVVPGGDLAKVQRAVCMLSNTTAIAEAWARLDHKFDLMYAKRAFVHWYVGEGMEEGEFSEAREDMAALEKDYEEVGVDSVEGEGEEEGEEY
Chain of monomeric Lis1 lacking its amino-terminal dimerization domain (domain or fragment) (A6ZPA6 whole entry, the tested form may be a part): as the sequence (P39946 whole entry) above

| Kd [1] | percent of Lis1 intensity on microtubules lost after washing [2] | residence time on the microtubule [2] | time to dissociation from the microtubule [2] | Substance |
| --- | --- | --- | --- | --- |
| 88 nM | 92% | 19.3 s |  | Lis1 (Pac1, the Lis1 homolog in S. cerevisiae), wild-type dimer (from UniProt P39946 1-494) (natural protein) |
|  |  |  | 1 to 2 s | monomeric Lis1 lacking its amino-terminal dimerization domain (domain or fragment) |

From publication doi:10.1101/2022.06.02.494578
